In US20220305136A1, “ANTI-CTLA4 CONJUGATES” (Ascendis Pharma Oncology Division A/S, priority 2019, published 2022):

Test: Plasma pharmacokinetics of HHC^MET in Wistar rats
Assay type: in vivo
Conditions: n=3
Method: This study was performed in order to investigate the plasma pharmacokinetics of HHC^MET in Wistar rats following subcutaneous and intramuscular administration of transient HHC^MET-linker hydrogel prodrug 32 or following subcutaneous or intravenous administration of free HHC^MET. Animals (n=3 per group) received either a single SC injection in the neck region or a single IM injection in the thigh musculature of a formulation of 32 (10 mg/kg HHC^MET equivalents) or a single SC injection in the neck region or IV injection in the tail vein of an HHC^MET formulation (10 mg/kg HHCMet). At selected time points, 200 μL blood were collected in L^1-Heparin tubes and processed to plasma by centrifugation at 3,000 g for 10 minutes at 4° C.
HHC^MET concentrations in rat plasma were determined with an in-house developed sandwich ELISA setup. For capturing HHC^MET, a human CTLA-4 (AA Ala37-Ser160)—Fc Tag fusion protein (Supplier AcroBiosystem, Newark, Del.; USA, catalog no. CT4-H5255) was coated to the ELISA plate wells and read-out was performed via a rabbit anti-camelid VHH antibody conjugated with horseradish peroxidase (supplier Genscript, Piscataway, N.J., USA, catalog no. A01861-200).
Calibration standards of HHC^MET in blank plasma were prepared as follows: thawed L^1-Heparin Wistar rat plasma was homogenized. The free HHC^MET formulation was spiked into blank plasma at concentrations between 96.0 ng/mL and 3.00 ng/mL with additional higher and lower anchor points. These solutions were used for the generation of a calibration curve. Calibration curves were analyzed via a 4-parameter logarithmic fit and 1/Y weighted. Calibration curves were confirmed via separately prepared quality control standards at 10, 40 and 80 ng/mL.

B1: HHC^MET: custom made protein of SEQ ID NO:2, expressed from E. coli; captured by human CTLA-4 and detected with anti-camelid VHH antibody in ELISA (protein)
chain: EVQLVESGGGLVQAGGSLRLSCAASGGTFSFYGMGWFRQAPGKEQEFVADIRTSAGRTYYADSVKGRFTISRDNAKNTVYLQMNSLKPEDTAVYYCAAEMSGISGWDYWGQGTQVTVSSGGGGSGGGSEVQLVESGGGLVQAGGSLRLSCAASGGTFSFYGMGWFRQAPGKEQEFVADIRTSAGRTYYADSVKGRFTISRDNAKNTVYLQMNSLKPEDTAVYYCAAEMSGISGWDYWGQGTQVTVSS
modifications: nanobody
notes: captured by human CTLA-4 and detected with anti-camelid VHH antibody in ELISA
0.25 h, 10 mg/kg HHC^MET (equivalents), subcutaneous
  mean HHC^MET concentration: 2540 ng/mL
0.25 h, 10 mg/kg intravenous
  mean HHC^MET concentration: 17400 ng/mL
1 h, 10 mg/kg HHC^MET (equivalents), subcutaneous
  mean HHC^MET concentration: 5090 ng/mL
1 h, 10 mg/kg intravenous
  mean HHC^MET concentration: 3530 ng/mL
4 h, 10 mg/kg HHC^MET (equivalents), subcutaneous
  mean HHC^MET concentration: 2280 ng/mL
4 h, 10 mg/kg intravenous
  mean HHC^MET concentration: 1720 ng/mL
24 h, 10 mg/kg HHC^MET (equivalents), subcutaneous, LLOQ 3.00 ng/mL
  mean HHC^MET concentration: 2.60 ng/mL
24 h, 10 mg/kg intravenous
  mean HHC^MET concentration: 8.27 ng/mL
32 h, 10 mg/kg HHC^MET (equivalents), subcutaneous, LLOQ 3.00 ng/mL
  mean HHC^MET concentration: <LLOQ
32 h, 10 mg/kg intravenous, LLOQ 3.00 ng/mL
  mean HHC^MET concentration: <LLOQ
48 h, 10 mg/kg HHC^MET (equivalents), subcutaneous, LLOQ 3.00 ng/mL
  mean HHC^MET concentration: <LLOQ
48 h, 10 mg/kg intravenous, LLOQ 3.00 ng/mL
  mean HHC^MET concentration: <LLOQ
72 h, 10 mg/kg HHC^MET (equivalents), subcutaneous, LLOQ 3.00 ng/mL
  mean HHC^MET concentration: 2.07 ng/mL
72 h, 10 mg/kg intravenous, LLOQ 3.00 ng/mL
  mean HHC^MET concentration: 1.15 ng/mL
96 h, 10 mg/kg HHC^MET (equivalents), subcutaneous, LLOQ 3.00 ng/mL
  mean HHC^MET concentration: <LLOQ
96 h, 10 mg/kg intravenous, LLOQ 3.00 ng/mL
  mean HHC^MET concentration: <LLOQ
168 h, 10 mg/kg HHC^MET (equivalents), subcutaneous, LLOQ 3.00 ng/mL
  mean HHC^MET concentration: <LLOQ
168 h, 10 mg/kg intravenous, LLOQ 3.00 ng/mL
  mean HHC^MET concentration: <LLOQ
